The series is described as follows: soluble on expression in E. coli; label from the status in PepcDB or PDB records.
“MGSDKIHHHHHHMNIPIKTLHYFLTLVETGNFTRAAEKSFITQPTLSKIIQRLEENLGQQLLHRNNQKIELTQAGILLENSAREILGQWHRLQEDLTNLSGLKSGHLRLGVCPMMSSLIIDLLTAFRQQYPGIELQMYEYGGFGCEQALLNNSLDIAFTALPTTHDIELANRALTRYPLLACLPKDHALAQQEAVTWQDFEAYPFILYNEDFSLAKLITRLSHKAGVQLNIAFRSGQWDFLATMVEAQMGVAILPEPICHKLQGSELVFKPIRPNLTWDLALIWRKDLPLTPAAQALLDLSEQAHLHP”: the “soluble on expression in E. coli” value is “not soluble”.

On to “MLNKTNTWTPSLFRDYKNAEHDACGIVSVMEKRKIPTKENIDLCIQSLVKMNHRAGFINGEGDGIGIHIDVPKALWNEKLKSSGYNPTIVDHPHFIVGHFFLNKNENIVDLKNHIRTQLNNENFAILFESDNVINSDALGPLGKQEEPLFWQVALIAENEVVNIEQTLFSVTIKIEENEAIHVASLSRDHVVYKVLGAGDTLVAYYNDLQHPLIASTMTLGHNRYSTNTLSNFFRVQPFSILGHNGEINTIAKLRDQAEMIHVPLTAGGSDSQDLNRTLETLLVQYGYSLFEAMDILFPPIINEIKLYETHLQDLYTYIREAWGHFAQGPAGIISRYKDEAVFSVDSLGLRPVWKVEIESSYIFSSEPGVVSPTEYVAEPKPLAPGEKVGLKWNEQDELVLYEHDDYQTQVYNRFKKKVDVTNYHLHLSIPKTKEIPDACDSMQVETKQYVAFGWDREHIQLLEQMATKGVEPIRSLGHDSPLAALDTDRRNIADFIKESVAVVTNPAIDRDREVEHFSTRTILGERPSLLSDAKKPFVVEMLSPIILEGSVAQSIAQELHTITYEQLIELFNTHSSIATISATFSQAETLQCALSRISSEAITAVNDGASLLLIDDADAHLNERLWIDPHLVTAKVHQVLSENKLRRNCSLVIRSGALRSLHDIVTLHGLGADSINPYLLFATVNDGTKTPITNLYNALNKGLEKVISTIGIHELRGYGRLYSSIGLHEEIANILQITNFLGSNDLAFSLESLAEDAQMRADDYNDPKVRIRKSFHIFPRIWKAIGDVAKGNSYDDYRDKLSELEENNPIAIRHLIQTKETKHVIPTEEVSISIQNHDLPFIISSMSFGSQNEIAFRAYAEAADQLNMISLNGEGGEIKDMIGKYPHTRGQQVASGRFGVNAELLNSSNLIEIKIGQGAKPGEGGHLPGSKVTAKIAEARNATIGSDLISPSNNHDIYSIEDLAQMITEIKTANQLAKVAVKVPVVPNIGTIAVGIAKAGADFINISGFDGGTGAARIHALQHVGLPVEIGVKAAHNALLEANMRHNVEIWADGGIRSVNDALKIMLLGANRIGFGTLSMIAIGCTTCRGCHLDTCHVGIATQIESEAQAKEHGLRRFVPRELESAVAGLLHLFTTFGEELKRLTGNLGYTNLQEIVGRSDLLEQVRGKNLLNLCNLLQTIEHPSVIKTEHVLEKQFEPIHSPHSKELVGVGVEQRVMGGLESCYRVRSKLYEDTKLEPLTLKYTNGSIPGNGLGAYNSENLFIHVNGGAQDGIGKTSFGGGIYITKAKGKDGLYYNGSVGKGFGYGAQKGALYVQGNADARAGIRLSGADMIIGGRMTKPLREKEQGNIGAYSNIKGFAFEYMTNGRALVLGDPGPWICAGMTGGVVYLRHDSSLGLTEQALKRRIAKGANVTLQPISKNGVRDVNELLLDYIRVLNEHEQYEEVALLTPLLDDMQQQFFEIIPKKEQADPSISTE”, for which the “soluble on expression in E. coli” value is “not soluble”.

As for “GNNMYKLSENNHKSLLENLKRRGIIDDDDVYNTMLQVDRGKYIKEIPYIDTPVYISHGVTISAPHMHALSLKRLINVLKPGSRAIDVGSGSGYLTVCMAIKMNVLENKNSYVIGLERVKDLVNFSLENIKRDKPELLKIDNFKIIHKNIYQVNEEEKKELGLFDAIHVGASASELPEILVDLLAENGKLIIPIEEDYTQVLYEITKKNGKIIKDRLFDVCFVSLKKN”, the “soluble on expression in E. coli” value was “soluble”.

For the sequence “MSQTNESFAALFEESIARSNMKAGEVISAEVVRIDHNFVVVNAGLKSEAFVPVEEFLNDQGELEVQVGDYVSVAIDALENGYGDTILSRDKAKRLASWLNLEKALESGEIISGTVTGKVKGGLTVMVNGIRAFLPGSLVDVRPIKDTTPYEGKTLEFKVIKLDRKRNNVVLSRRAVVEATLGEERQKLMETLKEGAIVNGIVKNITDYGAFVDLGGIDGLLHITDLAWRRVRHPSEVLSVGQEITAKILKFDQEKNRVSLGVKQLGEDPWVGISRRYPQGTRLFGKVTNLTDYGAFVEIEAGIEGLVHVSEMDWTNKNVAPSKVVQLGDEVEVMVLDIDEDKRRISLGMKQCKANPWDDFARNHKKGDKLAGQIKSITDFGVFIGLPGGIDGLVHLSDLSWQETGEEAVRKYKKGDEVEAVVLAIDVEKERISLGIKQLSGDPFNNFISANDKGSIVSVTIKTVDPKGAVVQLADDVEGYLRASEISSDRVEDARNVLKEGETMTAMIVNIDRKSRNINVSIKAKDSADQQEAMQKFAQDTGTAGTTNLGALLKAKLNETNQLEHHHHHH”, the “soluble on expression in E. coli” value is given as “soluble”.

Turning to “MGSDKIHHHHHHMVKRKNVAVIGGGVSGLAAAKAFDERGHRVTGFERSHDFGGVWELSRSYPDVQTQSPKDLYCYTDLPMPDAYPEWPKGPQVHAYLHSYANKHNLPRLFQLNTNILSMDRRADGQPGWTLTIEAAGRVRKEDFDFVAICTGQFSDKNILTHPGQEAFVAGGGEVIHSSEYTDSEMARGKHVVVLGGSKSATDIVVNAARSGAKSVTMVYRENVWRVPYFVGGINFKRLLYMRAQEQQFNQWGKSPLQRVIAALLKPLVWANFRGLETLLKAQLGLKKWNMVPDTPIEKEASCSLPIVTPGLFESFRDGTVKPIQGTYDRYEDGHVVLTTGDRVPCDLSVLAVGWKLGIPYLAQEYRDKLIEADGQYRVYRLAVNPDLPDMGFVGFNSSFCTILSAEMIANWLVRFADGQLAHQPSAQEMNANIEMMLNWRRKERPAAQVYGGLCSAPFHFKHFDELLADMGAGVRKRANPLAEQFSYPDARAYGRFLASTPQYQAG”, the “soluble on expression in E. coli” value is on record as “not soluble”.

“MSKRDYYETLGVSQDASEKEVKKAYKKLAMKYHPDRTQGDKSKEETFKEVKEAYEILNDDQKRAAYDQYGHAAFEQGGNGGGGGGHGGGFGQDFGDIFGDIFGGGGGGRGRQRQQRGSDLRYNVDLSLEDAVKGKSLEIKVPTYVSCEPCDGSGAKKGTSAKTCSTCHGHGQVQMRQGLFAVQQTCPTCSGKGKVIADKCTSCRGQGRVEKTKTLSVKIPAGVDTGDRIRLSGEGEAGEHGAPAGDLYVQVNVRDHEIFVRDENHLYCEVPISFVTAALGGDIEVPTLGGKVKLKVPKETQTGKMFRLRGKGVKSVRSSTTGDLMCKVVIETPVNLSGDQADLLRQLEEKMASSSKKHSPKETGFFDGVKKFFDDLKS”: the “soluble on expression in E. coli” value was “not soluble”.

As for “RYDKPGDKIDDGTELKLKGEKLKYVSRGGLKLEKGLHVFGVSVANQIGIDIGASTGGFTDVMLQDGAKLVYAVDVGTNQLVWKLRQDPRVRSMEQYNFRYAQPEDFNEGQPVFASIDVSFISLSLILPALHNVLSDQGQVIALIKPQFEAGREQIGKKGIVKDKQIHEKVIQKVMDFASGYGFTVKGLDFSPIQGGHGN”, the “soluble on expression in E. coli” value was “not soluble”.

As for “MRTVSHPTPLRRAPVQRRSAERLTRILDACADLLDEVGYDALSTRAVALRADVPIGSVYRFFGNKRQMADALAQRNLERYAERVTERLTEAGDGGWRGALDTVLDEYLAMKRTAPGFSLIDFGNQIPVGDRHAVPNHRVAERLTELLSGYLGRRPDDDLRRVFLVAVETADTLVQLAFRVAPDGDEKIIEEARELLRAYLGRVLD”, the “soluble on expression in E. coli” value was “soluble”.

Take “MNSNKELMQRRSQAIPRGVGQIHPIFADRAENCRVWDVEGREYLDFAGGIAVLNTGHLHPKVVAAVEAQLKKLSHTCFQVLAYEPYLELCEIMNQKVPGDFAKKTLLVTTGSEAVENAVKIARAATKRSGTIAFSGAYHGRTHYTLALTGKVNPYSAGMGLMPGHVYRALYPCPLHGISEDDAIASIHRIFKNDAAPEDIAAIVIEPVQGEGGFYASSPAFMQRLRALCDEHGIMLIADEAQSGAGRTGTLFAMEQMGVAPDLTTFAKSIAGGFPLAGVTGRAEVMDAVAPGGLGGTYAGNPIACVAALEVLKVFEQENLLQKANDLGQKLKDGLLAIAEKHPEIGDVRGLGAMIAIELFEDGDHNKPDAKLTAEIVARARDKGLILLSCGPYYNVLRILVPLTIEDAQIRQGLEIISQCFDEAKQ”: the “soluble on expression in E. coli” value is “soluble”.

Take “PVGYFTMYRFNFKYPPFDNKKIRQAAMYAIGQEDVMKALVGNPKYWQTCASLWGCGTPFETDIGKDMVVPSNIEKARALLKEAGYDNTPILVMHATDVGTLSAQPVVMAQALRKAGFNVNLAAMDWQSVATRRASKAAPAQGGWNIHNTNWYATDIMDPVRSAPAAANGDNAWFGWPDIPEIEALRTRFALSSDPAEQKKLAEEAQRIGIDEGLYVPLGQMSVPTVYTTKLSGLVHAPVFAFWNVKKAP”: the “soluble on expression in E. coli” value is listed as “not soluble”.

As for “MSLSEVSLRPAKISTVLPGSLGEEMGFEPGDAIVRINGQAPRDLIDYQFLCADDYLELDVLDSQGELHELAVEKEFDQDLGLGFETALFDGLIQCNNRCPFCFIDQQPPGKRESLYYKDDDYRLSFLYGSYLTLTNLSAKEWQRIEQLRLSPLYVSIHATEASVRERLLKNHRAGQILDQLAWFQARRLQIHAQVVVCPGVNDGKHLEQTLRDLAQFHQGETPAVISVAVVPVGLTRFRPQEDELSPVGQAKATEVIAQVQALQKEFAQQLGGNFVWLADEWFLIARQPLPPESHYEDYPQIGNGVGSIRQFIKEFQQQAAEFLPPAIAEAKTLTWVVGNAVEQAFELLVEQLNQVKGLTVNLAPLNSDYWGQEITVTGLLTGQDLIAKLAGRDLGDGILLPALMLKHDDTRFLDDLRVADVAQKLGTTIYPVADVASLLEHCVQPMAVSREGHHHHHH”, the “soluble on expression in E. coli” value is given as “soluble”.

Turning to “GNWAEITDEISKIYQDNQYKIRQINDVDAVSDKRREALQALFEHTGRNVIVYYSAWLENGRRFSGQSTDFSVNDTDKNSFMTALHKLDQSKGLDLILHTPGGDVAATESLVDYIHALFGQDFRVIVPQLAMSAGTMIALSSKEIVMGKHSSLGPIDPQFNGLPAHGLLEEFEQAKKEVSENPQTAHIWQVILNKYNPTMLGEAKKAIQWSNSMVKQWLEKGMFLDEPDKEEKATRAIKELADHSVTLAHNRHISVSKALELGLNIKELESDPKLQDLVLTLHHLSVIAAQRGPLIKFVVNHDNRGTF”, the “soluble on expression in E. coli” value is listed as “not soluble”.

“MAKILVFDEAARRALERGVNAVANAVKVTLGPRGRNVVLEKKFGSPTITKDGVTVAKEVELEDHLENIGAQLLKEVASKTNDVAGDGTTTATVLAQAIVREGLKNVAAGANPLALKRGIEKAVEAAVEKIKALAIPVEDRKAIEEVATISANDPEVGKLIADAMEKVGKEGIITVEESKSLETELKFVEGYQFDKGYISPYFVTNPETMEAVLEDAFILIVEKKVSNVRELLPILEQVAQTGKPLLIIAEDVEGEALATLVVNKLRGTLSVAAVKAPGFGDRRKEMLKDIAAVTGGTVISEELGFKLENATLSMLGRAERVRITKDETTIVGGKGKKEDIEARINGIKKELETTDSEYAREKLQERLAKLAGGVAVIRVGAATETELKEKKHRFEDALNATRAAVEEGIVPGGGVTLLRAISAVEELIKKLEGDEATGAKIVRRALEEPARQIAENAGYEGSVIVQQILAETKNPRYGFNAATGEFVDMVEAGIVDPAKVTRSALQNAASIGALILTTEAVVAEKPEKKESTPAFAGAGDMDF”: the “soluble on expression in E. coli” value is “soluble”.

“MSRVERLPNGLVVALEERDFPGVAFQLLVPAGAVNDPEGMEGAAALLEGWLWKGAGDLDARALAQALDALGVRRSSGAGLEYTAFAAAFLPEVLDEVFRLYALLLTRPRLPEEGLEAVGHVALQALLSLEDQPARKLLSELRRKVFRSPHGREPLGREEGLKGARAEALKADYRRRYTPKGAILAVAGGVSWERLRAALEPFLAWEGEEALYPAPELSEPHRFVLRRPTAQVQIGLAYPDVGPEDPGFYAARLALEVLSGGMSSRLFTEVREKRGLVYAVSAFPAGVKGQGLLMAYAGTTKERAGETLEVLRAEVERLAEGVTEEELFRAKVGLKTALVMADESIRSRAASMARDLYMLGRVRSLSEIEAAIEGTSLEAVNAFLRAHPYRDPWVGLLGEVEDV”: the “soluble on expression in E. coli” value is on record as “soluble”.

These data come from the DeepSol protein solubility set.
